# Data reported in IntAct's records for PubMed 25910212.
# B1: Zinc finger CCHC domain-containing protein 12 (Homo sapiens), Q6PEW1 (parent)
# chain: MASIIARVGNSRRLNAPLPPWAHSMLRSLGRSLGPIMASMADRNMKLFSGRVVPAQGEETFENWLTQVNGVLPDWNMSEEEKLKRLMKTLRGPAREVMRVLQATNPNLSVADFLRAMKLVFGESESSVTAHGKFFNTLQAQGEKASLYVIRLEVQLQNAIQAGIIAEKDANRTRLQQLLLGGELSRDLRLRLKDFLRMYANEQERLPNFLELIRMVREEEDWDDAFIKRKRPKRSESMVERAVSPVAFQGSPPIVIGSADCNVIEIDDTLDDSDEDVILVESQDPPLPSWGAPPLRDRARPQDEVLVIDSPHNSRAQFPSTSGGSGYKNNGPGEMRRARKRKHTIRCSYCGEEGHSKETCDNESDKAQVFENLIITLQELTHTEMERSRVAPGEYNDFSEPL
# B2: Carbonic anhydrase-related protein (Homo sapiens), P35219 (parent)
# chain: MADLSFIEDTVAFPEKEEDEEEEEEGVEWGYEEGVEWGLVFPDANGEYQSPINLNSREARYDPSLLDVRLSPNYVVCRDCEVTNDGHTIQVILKSKSVLSGGPLPQGHEFELYEVRFHWGRENQRGSEHTVNFKAFPMELHLIHWNSTLFGSIDEAVGKPHGIAIIALFVQIGKEHVGLKAVTEILQDIQYKGKSKTIPCFNPNTLLPDPLLRDYWVYEGSLTIPPCSEGVTWILFRYPLTISQLQIEEFRRLRTHVKGAELVEGCDGILGDNFRPTQPLSDRVIRAAFQ
# partner: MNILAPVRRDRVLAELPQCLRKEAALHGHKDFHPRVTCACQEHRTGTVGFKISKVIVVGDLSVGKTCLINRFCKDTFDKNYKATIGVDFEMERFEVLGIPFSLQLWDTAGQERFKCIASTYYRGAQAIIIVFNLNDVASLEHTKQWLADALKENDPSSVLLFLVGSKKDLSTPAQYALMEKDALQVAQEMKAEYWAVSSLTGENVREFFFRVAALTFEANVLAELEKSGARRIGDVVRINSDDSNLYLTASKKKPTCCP
# B3: U4/U6 small nuclear ribonucleoprotein Prp31 (Homo sapiens), Q8WWY3 (parent)
# chain: MSLADELLADLEEAAEEEEGGSYGEEEEEPAIEDVQEETQLDLSGDSVKTIAKLWDSKMFAEIMMKIEEYISKQAKASEVMGPVEAAPEYRVIVDANNLTVEIENELNIIHKFIRDKYSKRFPELESLVPNALDYIRTVKELGNSLDKCKNNENLQQILTNATIMVVSVTASTTQGQQLSEEELERLEEACDMALELNASKHRIYEYVESRMSFIAPNLSIIIGASTAAKIMGVAGGLTNLSKMPACNIMLLGAQRKTLSGFSSTSVLPHTGYIYHSDIVQSLPPDLRRKAARLVAAKCTLAARVDSFHESTEGKVGYELKDEIERKFDKWQEPPPVKQVKPLPAPLDGQRKKRGGRRYRKMKERLGLTEIRKQANRMSFGEIEEDAYQEDLGFSLGHLGKSGSGRVRQTQVNEATKARISKTLQRTLQKQSVVYGGKSTIRDRSSGTASSVAFTPLQGLEIVNPQAAEKKVAEANQKYFSSMAEFLKVKGEKSGLMST
# partner: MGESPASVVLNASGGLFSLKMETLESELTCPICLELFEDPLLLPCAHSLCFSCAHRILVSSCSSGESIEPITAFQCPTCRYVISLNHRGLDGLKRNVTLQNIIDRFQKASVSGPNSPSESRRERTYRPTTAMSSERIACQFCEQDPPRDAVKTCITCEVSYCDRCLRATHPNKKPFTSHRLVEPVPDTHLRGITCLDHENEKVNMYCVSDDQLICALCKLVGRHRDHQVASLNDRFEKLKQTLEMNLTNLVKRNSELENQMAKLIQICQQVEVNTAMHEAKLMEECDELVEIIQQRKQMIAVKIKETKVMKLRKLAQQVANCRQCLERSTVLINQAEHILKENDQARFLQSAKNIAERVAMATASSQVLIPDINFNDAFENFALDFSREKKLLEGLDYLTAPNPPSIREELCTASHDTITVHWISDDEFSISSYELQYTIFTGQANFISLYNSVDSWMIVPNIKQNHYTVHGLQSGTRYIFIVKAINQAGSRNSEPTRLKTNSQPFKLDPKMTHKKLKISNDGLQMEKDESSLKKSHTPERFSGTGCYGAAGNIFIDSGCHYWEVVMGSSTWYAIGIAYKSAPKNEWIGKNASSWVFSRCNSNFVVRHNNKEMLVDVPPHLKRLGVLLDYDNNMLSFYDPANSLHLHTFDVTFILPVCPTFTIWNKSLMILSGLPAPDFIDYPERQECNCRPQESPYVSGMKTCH
# B4: Ribonucleoside-diphosphate reductase subunit M2 B (Homo sapiens), Q7LG56 (parent)
# chain: MGDPERPEAAGLDQDERSSSDTNESEIKSNEEPLLRKSSRRFVIFPIQYPDIWKMYKQAQASFWTAEEVDLSKDLPHWNKLKADEKYFISHILAFFAASDGIVNENLVERFSQEVQVPEARCFYGFQILIENVHSEMYSLLIDTYIRDPKKREFLFNAIETMPYVKKKADWALRWIADRKSTFGERVVAFAAVEGVFFSGSFAAIFWLKKRGLMPGLTFSNELISRDEGLHCDFACLMFQYLVNKPSEERVREIIVDAVKIEQEFLTEALPVGLIGMNCILMKQYIEFVADRLLVELGFSKVFQAENPFDFMENISLEGKTNFFEKRVSEYQRFAVMAETTDNVFTLDADF
# partner: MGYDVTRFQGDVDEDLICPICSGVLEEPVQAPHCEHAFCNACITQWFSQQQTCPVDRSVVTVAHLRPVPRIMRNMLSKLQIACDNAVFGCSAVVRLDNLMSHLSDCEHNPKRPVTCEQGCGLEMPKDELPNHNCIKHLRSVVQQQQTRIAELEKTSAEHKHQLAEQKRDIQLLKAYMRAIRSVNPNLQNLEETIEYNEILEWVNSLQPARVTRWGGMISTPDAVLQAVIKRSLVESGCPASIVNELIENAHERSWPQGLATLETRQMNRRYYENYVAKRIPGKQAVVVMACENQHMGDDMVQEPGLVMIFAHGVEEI
# B5: U4/U6 small nuclear ribonucleoprotein Prp31 (Homo sapiens), Q8WWY3 (parent)
# chain: B3 chain
# partner: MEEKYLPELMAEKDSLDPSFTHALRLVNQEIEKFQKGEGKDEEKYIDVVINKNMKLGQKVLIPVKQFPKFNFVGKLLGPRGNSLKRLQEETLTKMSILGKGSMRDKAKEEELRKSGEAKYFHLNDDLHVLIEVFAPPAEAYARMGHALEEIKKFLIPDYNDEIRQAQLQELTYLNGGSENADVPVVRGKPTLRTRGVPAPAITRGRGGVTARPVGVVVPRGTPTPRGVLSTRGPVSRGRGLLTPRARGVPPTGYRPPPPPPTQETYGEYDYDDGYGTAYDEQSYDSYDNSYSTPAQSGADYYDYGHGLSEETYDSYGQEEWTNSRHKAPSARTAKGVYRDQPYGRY
# B6: U4/U6 small nuclear ribonucleoprotein Prp31 (Homo sapiens), Q8WWY3 (parent)
# chain: B3 chain
# partner: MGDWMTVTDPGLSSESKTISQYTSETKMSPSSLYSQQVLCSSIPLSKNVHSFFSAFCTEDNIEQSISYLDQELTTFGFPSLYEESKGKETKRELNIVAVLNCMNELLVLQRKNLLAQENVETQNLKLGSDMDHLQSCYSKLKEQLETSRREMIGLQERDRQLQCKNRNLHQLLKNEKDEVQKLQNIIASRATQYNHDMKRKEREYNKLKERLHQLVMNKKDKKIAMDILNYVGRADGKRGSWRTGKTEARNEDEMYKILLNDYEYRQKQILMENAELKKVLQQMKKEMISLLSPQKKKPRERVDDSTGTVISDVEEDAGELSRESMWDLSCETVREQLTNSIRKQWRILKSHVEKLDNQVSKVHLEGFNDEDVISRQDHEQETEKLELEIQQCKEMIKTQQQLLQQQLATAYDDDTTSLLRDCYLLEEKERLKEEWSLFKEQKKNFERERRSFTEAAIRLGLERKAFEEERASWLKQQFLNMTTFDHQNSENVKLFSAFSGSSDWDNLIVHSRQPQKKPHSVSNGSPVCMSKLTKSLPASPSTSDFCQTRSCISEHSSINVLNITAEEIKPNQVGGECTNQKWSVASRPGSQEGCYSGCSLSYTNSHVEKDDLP
# B7: E3 ubiquitin-protein ligase Midline-1 (Homo sapiens), O15344 (parent)
# chain: METLESELTCPICLELFEDPLLLPCAHSLCFNCAHRILVSHCATNESVESITAFQCPTCRHVITLSQRGLDGLKRNVTLQNIIDRFQKASVSGPNSPSETRRERAFDANTMTSAEKVLCQFCDQDPAQDAVKTCVTCEVSYCDECLKATHPNKKPFTGHRLIEPIPDSHIRGLMCLEHEDEKVNMYCVTDDQLICALCKLVGRHRDHQVAALSERYDKLKQNLESNLTNLIKRNTELETLLAKLIQTCQHVEVNASRQEAKLTEECDLLIEIIQQRRQIIGTKIKEGKVMRLRKLAQQIANCKQCIERSASLISQAEHSLKENDHARFLQTAKNITERVSMATASSQVLIPEINLNDTFDTFALDFSREKKLLECLDYLTAPNPPTIREELCTASYDTITVHWTSDDEFSVVSYELQYTIFTGQANVVSLCNSADSWMIVPNIKQNHYTVHGLQSGTKYIFMVKAINQAGSRSSEPGKLKTNSQPFKLDPKSAHRKLKVSHDNLTVERDESSSKKSHTPERFTSQGSYGVAGNVFIDSGRHYWEVVISGSTWYAIGLAYKSAPKHEWIGKNSASWALCRCNNNWVVRHNSKEIPIEPAPHLRRVGILLDYDNGSIAFYDALNSIHLYTFDVAFAQPVCPTFTVWNKCLTIITGLPIPDHLDCTEQLP
# partner: B3 partner
# Variants of: B1
# Details: with pnma1_human PNMA1, Q8ND90
# Sequence of pnma1_human PNMA1, Q8ND90 (Q8ND90 whole entry): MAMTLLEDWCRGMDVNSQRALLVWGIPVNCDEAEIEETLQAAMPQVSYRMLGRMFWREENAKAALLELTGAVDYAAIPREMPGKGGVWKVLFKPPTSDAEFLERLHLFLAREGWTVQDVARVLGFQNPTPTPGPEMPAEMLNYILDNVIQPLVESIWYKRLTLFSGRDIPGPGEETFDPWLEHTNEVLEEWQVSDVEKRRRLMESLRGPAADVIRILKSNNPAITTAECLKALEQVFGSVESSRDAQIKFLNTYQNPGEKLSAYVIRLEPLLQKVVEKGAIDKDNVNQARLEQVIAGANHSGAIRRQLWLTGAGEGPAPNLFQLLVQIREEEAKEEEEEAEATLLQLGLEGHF
row,Variant,effect of a mutation on the interaction
1,R7C,with no effect
2,T344I,with no effect

# Variants of: B1
# Details: with tfcp2_human TFCP2, Q12800
# Sequence of tfcp2_human TFCP2, Q12800 (Q12800 whole entry): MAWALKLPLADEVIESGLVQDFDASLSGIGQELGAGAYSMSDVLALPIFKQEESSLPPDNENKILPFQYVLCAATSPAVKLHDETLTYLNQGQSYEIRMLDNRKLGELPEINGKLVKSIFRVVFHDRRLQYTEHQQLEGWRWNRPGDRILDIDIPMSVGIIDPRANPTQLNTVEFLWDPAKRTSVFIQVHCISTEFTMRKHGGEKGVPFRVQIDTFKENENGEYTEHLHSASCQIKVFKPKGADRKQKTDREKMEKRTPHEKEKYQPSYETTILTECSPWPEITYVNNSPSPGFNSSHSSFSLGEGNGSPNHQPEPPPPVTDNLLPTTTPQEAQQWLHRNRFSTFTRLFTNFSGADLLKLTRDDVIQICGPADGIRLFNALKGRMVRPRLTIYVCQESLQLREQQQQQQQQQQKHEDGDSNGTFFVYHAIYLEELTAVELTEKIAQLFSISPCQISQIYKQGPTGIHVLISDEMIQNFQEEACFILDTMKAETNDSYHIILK
row,Variant,effect of a mutation on the interaction
1,R7C,with no effect
2,T344I,with no effect

# Variants of: B2
# Details: with rab34_human RAB34, Q9BZG1
row,Variant,effect of a mutation on the interaction
1,S100P,disrupting interaction strength

# Variants of: B3
# Details: with MID2, Q9UJV3-2
row,Variant,effect of a mutation on the interaction
1,L107V,with no effect

# Variants of: B4
# Details: with rnf41_human RNF41, Q9H4P4
row,Variant,effect of a mutation on the interaction
1,W64R,disrupting interaction strength
2,C236F,with no effect

# Variants of: B5
# Details: with khdr3_human KHDRBS3, O75525
row,Variant,effect of a mutation on the interaction
1,L107V,with no effect

# Variants of: B6
# Details: with adip_human SSX2IP
row,Variant,effect of a mutation on the interaction
1,L107V,with no effect

# Variants of: B7
# Details: with MID2, Q9UJV3-2
row,Variant,effect of a mutation on the interaction
1,K370E,with no effect
2,P151L,with no effect
